Measurements: patent US20030129189A1, “Tumor necrosis factor-gamma” (priority 1994, published 2003)

B1: FLAG-tagged soluble TNF-gamma-beta (aa 72-251) (ligand)
chain: LKGQEFAPSHQQVYAPLRADGDKPRAHLTVVRQTPTQHFKNQFPALHWEHELGLAFTKNRMNYTNKFLLIPESGDYFIYSQVTFRGMTSECSEIRQAGRPNKPDSITVVITKVTDSYPEPTQLLMGTKSVCEVGSNWFQPIYLGAMFSLQEGDKLMVNVSDISLVDYTKEDKTFFGAFLL
notes: also called FLAG-TL1β; FLAG-TNF-gamma-beta; not shown: The N-terminal FLAG tag (pFLAG-CMV-1 vector) and any vector linker

Columns and labels:
[1] = test system: Primary human aterial endothelial; assay: TNF-gamma activity on primary human arterial endothelial cells; type: cell-based; design: key: The numbers of “+” indicate the relative level of activities.; ++: The numbers of “+” indicate the relative level of activities.; +++: The numbers of “+” indicate the relative level of activities.; “−” indicates no detected activity at the concentration range tested
[2] = biological target: T1, LTβR on transiently transfected cells (UniProt P36941 31-435, limits assumed); assay: flow cytometry on transiently transfected cells
T1 construct: whole, on cells
Procedure: (§1) One million cells, in 0.1 ml of FACS buffer (PBS, 0.1% BSA, 0.1% NaN₃), were incubated with 0.1-1 microgram of protein or antibody at RT for 15 min. The cells were washed with 3 ml of FACS buffer, reacted with biotinylated primary antibody, and stained with PE-conjugated secondary antibody at RT for 15 min. Cells were then washed again, resuspended in 0.5 microgram/ml of propidium iodide, and live cells were gated and analyzed on a FACScan using the CellQuest software (BD Biosciences).

[3] = biological target: T2, RANK on transiently transfected cells (UniProt Q9Y6Q6 30-616, limits assumed); assay: flow cytometry on transiently transfected cells
T2 construct: whole, on cells
T2 sequence (looked up): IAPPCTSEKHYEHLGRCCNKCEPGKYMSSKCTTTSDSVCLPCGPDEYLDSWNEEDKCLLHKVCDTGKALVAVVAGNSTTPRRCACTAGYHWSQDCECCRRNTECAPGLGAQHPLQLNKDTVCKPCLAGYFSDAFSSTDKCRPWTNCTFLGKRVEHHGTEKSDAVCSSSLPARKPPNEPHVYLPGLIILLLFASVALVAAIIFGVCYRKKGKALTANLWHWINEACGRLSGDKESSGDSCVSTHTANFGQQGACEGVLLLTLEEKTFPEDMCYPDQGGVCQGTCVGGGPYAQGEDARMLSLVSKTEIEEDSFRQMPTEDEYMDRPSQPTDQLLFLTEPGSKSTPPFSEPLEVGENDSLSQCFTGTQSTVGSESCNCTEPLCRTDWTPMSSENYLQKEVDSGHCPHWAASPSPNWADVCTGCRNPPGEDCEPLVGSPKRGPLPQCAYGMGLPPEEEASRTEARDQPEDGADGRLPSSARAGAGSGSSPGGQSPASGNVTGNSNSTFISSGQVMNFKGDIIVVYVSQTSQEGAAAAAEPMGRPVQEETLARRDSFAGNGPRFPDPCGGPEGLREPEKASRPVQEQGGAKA
Procedure: as §1

[4] = biological target: T3, CD30 on transiently transfected cells (UniProt P28908 19-595, limits assumed); assay: flow cytometry on transiently transfected cells
T3 construct: whole, on cells
T3 sequence (looked up): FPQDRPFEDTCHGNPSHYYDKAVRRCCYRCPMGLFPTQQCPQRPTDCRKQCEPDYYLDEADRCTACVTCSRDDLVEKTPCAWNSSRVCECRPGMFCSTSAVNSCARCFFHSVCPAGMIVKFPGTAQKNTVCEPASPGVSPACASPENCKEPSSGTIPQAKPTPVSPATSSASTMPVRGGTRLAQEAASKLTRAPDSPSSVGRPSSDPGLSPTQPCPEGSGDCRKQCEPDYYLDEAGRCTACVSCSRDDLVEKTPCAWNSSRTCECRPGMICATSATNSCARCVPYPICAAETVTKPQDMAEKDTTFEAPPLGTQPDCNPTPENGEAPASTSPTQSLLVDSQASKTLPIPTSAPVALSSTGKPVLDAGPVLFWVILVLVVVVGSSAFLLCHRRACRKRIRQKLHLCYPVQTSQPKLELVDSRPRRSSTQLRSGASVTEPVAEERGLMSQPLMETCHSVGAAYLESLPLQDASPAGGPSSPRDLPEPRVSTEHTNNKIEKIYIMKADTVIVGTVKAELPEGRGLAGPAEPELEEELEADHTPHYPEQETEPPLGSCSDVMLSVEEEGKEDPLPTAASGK
Procedure: as §1

[5] = biological target: T4, CD27 on transiently transfected cells (UniProt P26842 20-260, limits assumed); assay: flow cytometry on transiently transfected cells
T4 construct: whole, on cells
T4 sequence (looked up): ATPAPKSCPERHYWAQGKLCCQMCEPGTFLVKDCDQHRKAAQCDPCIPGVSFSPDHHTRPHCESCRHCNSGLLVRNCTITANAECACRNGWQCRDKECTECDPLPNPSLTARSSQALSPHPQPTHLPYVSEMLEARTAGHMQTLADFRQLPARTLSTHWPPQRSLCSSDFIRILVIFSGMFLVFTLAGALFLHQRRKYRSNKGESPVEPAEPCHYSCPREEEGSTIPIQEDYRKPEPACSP
Procedure: as §1

[6] = biological target: T5, DcR1 on transiently transfected cells (UniProt O14798 26-236, limits assumed); assay: flow cytometry on transiently transfected cells
T5 construct: whole, on cells
T5 sequence (looked up): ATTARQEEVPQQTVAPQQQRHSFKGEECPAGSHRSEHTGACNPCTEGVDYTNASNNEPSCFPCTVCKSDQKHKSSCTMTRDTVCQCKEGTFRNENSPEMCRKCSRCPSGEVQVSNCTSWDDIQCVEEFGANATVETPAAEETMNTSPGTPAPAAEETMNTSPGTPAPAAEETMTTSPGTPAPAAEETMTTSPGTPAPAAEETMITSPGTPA
Procedure: as §1

[7] = biological target: T6, HveA on transiently transfected cells (UniProt Q92956 39-283, limits assumed); assay: flow cytometry on transiently transfected cells
T6 construct: whole, on cells
T6 sequence (looked up): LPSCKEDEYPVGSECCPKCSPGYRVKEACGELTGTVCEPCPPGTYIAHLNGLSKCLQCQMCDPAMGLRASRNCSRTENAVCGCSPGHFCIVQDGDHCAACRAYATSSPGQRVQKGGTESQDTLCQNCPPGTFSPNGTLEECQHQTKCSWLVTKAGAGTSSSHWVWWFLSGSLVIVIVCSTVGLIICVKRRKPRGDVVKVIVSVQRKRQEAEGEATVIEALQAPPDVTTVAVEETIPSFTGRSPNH
Procedure: as §1

[8] = biological target: T7, AITR on transiently transfected cells (UniProt Q9Y5U5 26-241, limits assumed); assay: flow cytometry on transiently transfected cells
T7 construct: whole, on cells
T7 sequence (looked up): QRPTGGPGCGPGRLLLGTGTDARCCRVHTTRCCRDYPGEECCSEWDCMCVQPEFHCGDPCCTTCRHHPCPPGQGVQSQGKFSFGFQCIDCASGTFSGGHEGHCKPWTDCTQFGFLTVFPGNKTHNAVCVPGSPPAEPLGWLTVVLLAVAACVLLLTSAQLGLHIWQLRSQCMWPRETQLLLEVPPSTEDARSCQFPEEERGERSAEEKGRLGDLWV
Procedure: as §1

T1 sequence (P36941 31-435 limits assumed): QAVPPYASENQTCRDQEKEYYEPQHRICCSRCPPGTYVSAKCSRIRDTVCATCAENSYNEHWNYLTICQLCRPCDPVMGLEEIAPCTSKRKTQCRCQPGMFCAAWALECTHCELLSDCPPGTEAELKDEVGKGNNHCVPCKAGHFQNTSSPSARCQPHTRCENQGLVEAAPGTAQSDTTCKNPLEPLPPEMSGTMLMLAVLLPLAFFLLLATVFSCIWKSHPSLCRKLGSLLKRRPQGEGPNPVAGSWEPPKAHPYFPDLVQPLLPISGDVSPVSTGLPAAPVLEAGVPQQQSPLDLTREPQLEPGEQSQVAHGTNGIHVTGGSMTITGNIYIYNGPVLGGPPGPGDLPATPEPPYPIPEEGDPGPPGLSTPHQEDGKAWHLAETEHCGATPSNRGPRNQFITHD

Molecule	Differentiation [1]	Proliferation [1]	binding result [2]	binding result [3]	binding result [4]	binding result [5]	binding result [6]	binding result [7]	binding result [8]
TNF-gamma: new member of the tumor necrosis factor family; the term refers to TNF-gamma-alpha and/or TNF-gamma-beta	−?	++							
B1			no binding	no binding	no binding	no binding	no binding	no binding	no binding
